# In the supplement of paper PMC10567573:
# B1: SLC19A2 (parent)
# chain: FHHIPSTCQRVNGIKVQNGGIVTD
# Variants of: B1
# Experiment: protein stability index of a GFP-peptide fusion (GPS, HEK-293T) (PSI 1-6); higher = more stable
# Conditions: c terminus: a fixed tail appended
# 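Note: lentivirally expressed fusions sorted by FACS into six bins by GFP to DsRed ratio, PSI derived from sequencing read proportions per bin multiplied by bin number.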
row,Variant,protein stability index
1,FHHIPSTCQRVNGIKVQEGGIVTD [N18E],2.01
2,FHHIPSTCQRVNGIKVQIGGIVTD [N18I],2.94
3,FHHIPSTCQRVNGIKVQQGGIVTD [N18Q],1.48
4,FHHIPSTCQRVNGIKVQYGGIVTD [N18Y],1.63
5,FHHIPSTCQRVNGIKVQTGGIVTD [N18T],1.65
6,FHHIPSTCQRVNGIKVQKGGIVTD [N18K],1.68
7,FHHIPSTCQRVNGIKVQLGGIVTD [N18L],1.28
8,FHHIPSTCQRVNGIKVQGGGIVTD [N18G],3.96
9,FHHIPSTCQRVNGIKVQDGGIVTD [N18D],1.81
10,FHHIPSTCQRVNGIKVQPGGIVTD [N18P],2.08
11,FHHIPSTCQRVNGIKVQSGGIVTD [N18S],1.92
12,FHHIPSTCQRVNGIKVQCGGIVTD [N18C],1.52
13,FHHIPSTCQRVNGIKVQRGGIVTD [N18R],2.14
14,FHHIPSTCQRVNGIKVQFGGIVTD [N18F],2.04
15,FHHIPSTCQRVNGIKVQMGGIVTD [N18M],1.98
16,FHHIPSTCQRVNGIKVQAGGIVTD [N18A],1.77
17,FHHIPSTCQRVNGIKVQNGGNVTD [I21N],3.07
18,FHHIPSTCQRVNGIKVQNGGCVTD [I21C],1.79
19,FHHIPSTCQRVNGIKVQNGGAVTD [I21A],2.46
20,FHHIPSTCQRVNGIKVQNGGRVTD [I21R],2.43
21,FHHIPSTCQRVNGIKVQNGGSVTD [I21S],1.85
22,FHHIPSTCQRVNGIKVQNGGKVTD [I21K],3.06
23,FHHIPSTCQRVNGIKVQNGGPVTD [I21P],1.6
24,FHHIPSTCQRVNGIKVQNGGMVTD [I21M],2.03

row,Variant,protein stability index
1,FHHIPSTCQRVNGIKVQNGGFVTD [I21F],1.83
2,FHHIPSTCQRVNGIKVQNGGGVTD [I21G],2.2
3,FHHIPSTCQRVNGIKVQNGGLVTD [I21L],1.61
4,FHHIPSTCQRVNGIKVQNGGDVTD [I21D],2.24
5,FHHIPSTCQRVNGIKVQNGGHVTD [I21H],2.09
6,FHHIPSTCQRVNGIKVQNGGEVTD [I21E],2.15
7,FHHIPSTCQRVNGIKVQNGGQVTD [I21Q],2.16
8,FHHIPSTCQRVNGIKVQNGGTVTD [I21T],2.19
9,FHHIPSTCQRVNGIKVQNGGYVTD [I21Y],2.18
10,FHHIPSTCQRVNGIKVQNGGIVTG [D24G],1.16
11,FHHIPSTCQRVNGIKVQNGGIVTY [D24Y],3.21
12,FHHIPSTCQRVNGIKVQNGGIVTS [D24S],2.12
13,FHHIPSTCQRVNGIKVQNGGIVTC [D24C],1.5
14,FHHIPSTCQRVNGIKVQNGGIVTA [D24A],2.16
15,FHHIPSTCQRVNGIKVQNGGIVTP [D24P],1.72
16,FHHIPSTCQRVNGIKVQNGGIVTT [D24T],1.7
17,FHHIPSTCQRVNGIKVQNGGIVTE [D24E],2.06
18,FHHIPSTCQRVNGIKVQNGGIVTQ [D24Q],1.94
19,FHHIPSTCQRVNGIKVQNGGIVTH [D24H],2.11
20,FHHIPSTCQRVNGIKVQNGGIVTM [D24M],2.38
21,FHHIPSTCQRVNGIKVQNGGIVTR [D24R],1.89
22,FHHIPSTCQRVNGIKVQNGGIVTK [D24K],2.64
23,FHHIPSTCQRVNGIKVQNGGIVTI [D24I],2.06
24,FHHIPSTCQRVNGIKVQNGGIVTN [D24N],2.47

row,Variant,protein stability index
1,FHHIPSTCQRVNGIKVHNGGIVTD [Q17H],2.08
2,FHHIPSTCQRVNGIKVCNGGIVTD [Q17C],2.37
3,FHHIPSTCQRVNGIKVYNGGIVTD [Q17Y],2.31
4,FHHIPSTCQRVNGIKVANGGIVTD [Q17A],1.89
5,FHHIPSTCQRVNGIKVWNGGIVTD [Q17W],1.62
6,FHHIPSTCQRVNGIKVGNGGIVTD [Q17G],1.87
7,FHHIPSTCQRVNGIKVPNGGIVTD [Q17P],2.35
8,FHHIPSTCQRVNGIKVVNGGIVTD [Q17V],2.1
9,FHHIPSTCQRVNGIKVINGGIVTD [Q17I],1.6
10,FHHIPSTCQRVNGIKVNNGGIVTD [Q17N],2.17
11,FHHIPSTCQRVNGIKVENGGIVTD [Q17E],2.28
12,FHHIPSTCQRVNGIKVFNGGIVTD [Q17F],1.41
13,FHHIPSTCQRVNGIKVSNGGIVTD [Q17S],2.72
14,FHHIPSTCQRVNGIKVMNGGIVTD [Q17M],1.09
15,FHHIPSTCQRVNGIKVKNGGIVTD [Q17K],2.66
16,FHHIPSTCQRVNGIKVRNGGIVTD [Q17R],2.81
17,FHHIPSTCQRVNGIKVTNGGIVTD [Q17T],1.67
18,FHHIPSTCQRVNGIKVDNGGIVTD [Q17D],2.05
19,FHHIPSTCQRVNGIKVLNGGIVTD [Q17L],1.34
20,FHHIPSTCQRVNGIKTQNGGIVTD [V16T],1.89
21,FHHIPSTCQRVNGIKNQNGGIVTD [V16N],1.96
22,FHHIPSTCQRVNGIKPQNGGIVTD [V16P],2.14
23,FHHIPSTCQRVNGIKWQNGGIVTD [V16W],2.14
24,FHHIPSTCQRVNGIKRQNGGIVTD [V16R],1.93

row,Variant,protein stability index
1,FHHIPSTCQRVNGIKQQNGGIVTD [V16Q],1.56
2,FHHIPSTCQRVNGIKSQNGGIVTD [V16S],2.26
3,FHHIPSTCQRVNGIKYQNGGIVTD [V16Y],1.95
4,FHHIPSTCQRVNGIKVQNGGIVFD [T23F],1.81
5,FHHIPSTCQRVNGIKVQNGGIVMD [T23M],2.15
6,FHHIPSTCQRVNGIKVQNGGIVND [T23N],1.86
7,FHHIPSTCQRVNGIKVQNGGIVRD [T23R],4.73
8,FHHIPSTCQRVNGIKVQNGGIVED [T23E],1.85
9,FHHIPSTCQRVNGIKVQNGGIVSD [T23S],2.18
10,FHHIPSTCQRVNGIKVQNGGIVGD [T23G],1.67
11,FHHIPSTCQRVNGIKVQNGGIVQD [T23Q],2.44
12,FHHIPSTCQRVNGIKVQNGGIVLD [T23L],1.95
13,FHHIPSTCQRVNGIKVQNGGIVID [T23I],1.57
14,FHHIPSTCQRVNGIKVQNGGIVCD [T23C],2.27
15,FHHIPSTCQRVNGIKVQNGGIVWD [T23W],1.45
16,FHHIPSTCQRVNGIKVQNGGIVVD [T23V],1.67
17,FHHIPSTCQRVNGIKVQNGGIVAD [T23A],2.4
18,FHHIPSTCQRVNGIKVQNGGIVPD [T23P],1.89
19,FHHIPSTCQRVNGIKVQNGGIVHD [T23H],3.31
20,FHHIPSTCQRVNGIKVQNGGIVDD [T23D],2.53
21,FHHIPSTCQRVNGIKVQNGGIVKD [T23K],2.11
22,FHHIPSTCQRVNGIKVQNGGIVYD [T23Y],1.75
